B1: YHR064C (protein, UniProt P38788 1-538, looked up)
Ribosome-associated complex …: MSSPVIGITFGNTSSSIAYINPKNDVDVIANPDGERAIPSALSYVGEDEYHGGQALQQLIRNPKNTIINFRDFIGLPFDKCDVSKCANGAPAVEVDGKVGFVISRGEGKEEKLTVDEVVSRHLNRLKLAAEDYIGSAVKEAVLTVPTNFSEEQKTALKASAAKIGLQIVQFINEPSAALLAHAEQFPFEKDVNVVVADFGGIRSDAAVIAVRNGIFTILATAHDLSLGGDNLDTELVEYFASEFQKKYQANPRKNARSLAKLKANSSITKKTLSNATSATISIDSLADGFDYHASINRMRYELVANKVFAQFSSFVDSVIAKAELDPLDIDAVLLTGGVSFTPKLTTNLEYTLPESVEILGPQNKNASNNPNELAASGAALQARLISDYDADELAEALQPVIVNTPHLKKPIGLIGAKGEFHPVLLAETSFPVQKKLTLKQAKGDFLIGVYEGDHHIEEKTLEPIPKEENAEEDDESEWSDDEPEVVREKLYTLGTKLMELGIKNANGVEIIFNINKDGALRVTARDLKTGNAVKGEL
B2: YHR114W (protein, UniProt P38822 1-633, looked up)
Protein BZZ1: MSADLSIGNEIKDSFKETHKWVQNNLKWLKDIEQFYRERAKLEKDYSERLSRLSAEYFNKKSSTSVPISVGDTPTTTPGSIEAAGVVAWNEILSQTDMISKDHDQLSTDFENHVANQLSGLFTKLDMTLSKINGFNNDMVNKKDNIYHELEKAKKDYDEACSTMEMARNRYTKASNDRNKKKLDEKEMEMNKCKNEYLIKINQANRTKDKYYFQDVPEVLDLLQDVNEAKTLFLNDLWLKAASVENDLGANVSKRLQAANSVVKQNKPSLNTAIFIKHNLKNWKEPQDFVYKPSPVWHDDEKFAVPSSLEVEDLRIKLAKAENDYNSLQDKTQNELSKLSTLNKIKHEMKTNEDNINATKFYDTLKEYLNVVSPFTSHETLKLQAEVQIESIQNNVPEEYDLSTDNIDLSKTKKKSGIFSKFKHNILNVDSKPSSGGSTGNGNGGPLHITSLFNTSRRTRLGSAPNNAGEDSDNNSIRTTSTNNTKKTTQNSSDDGKNKVLYAYVQKDDDEITITPGDKISLVARDTGSGWTKINNDTTGETGLVPTTYIRISSAATVKANDRGPAPEVPPPRRSTLPVRTMEAIYAYEAQGDDEISIDPGDIITVIRGDDGSGWTYGECDGLKGLFPTSYCK
B3: ABP1 Y7Y (protein, UniProt P15891 2-592, looked up)
Actin-binding protein: ALEPIDYTTHSREIDAEYLKIVRGSDPDTTWLIISPNAKKEYEPESTGSSFHDFLQLFDETKVQYGLARVSPPGSDVEKIIIIGWCPDSAPLKTRASFAANFAAVANNLFKGYHVQVTARDEDDLDENELLMKISNAAGARYSIQTSSKQQGKASTPPVKKSFTPSKSPAPVSKKEPVKTPSPAPAAKISSRVNDNNDDDDWNEPELKERDFDQAPLKPNQSSYKPIGKIDLQKVIAEEKAKEDPRLVQKPTAAGSKIDPSSDIANLKNESKLKRDSEFNSFLGTTKPPSMTESSLKNDDDKVIKGFRNEKSPAQLWAERKAKQNSGNAETKAEAPKPEVPEDEPEGEPDVKDLKSKFEGLAASEKEEEEMENKFAPPPKKSEPTIISPKPFSKPQEPVKAEEAEQPKTDYKKIGNPLPGMHIEADNEEEPEENDDDWDDDEDEAAQPPLPSRNVASGAPVQKEEPEQEEIAPSLPSRNSIPAPKQEEAPEQAPEEEIEEEAEEAAPQLPSRSSAAPPPPPRRATPEKKPKENPWATAEYDYDAAEDNELTFVENDKIINIEFVDDDWWLGELEKDGSKGLFPSNYVSLGN
modifications: synonymous codon change Y7Y in SH3
B4: ABP1 Y9Y (protein, UniProt P15891 2-592, looked up)
Actin-binding protein: B3 Actin-binding protein
modifications: synonymous codon change Y9Y
B5: ABP1 D33D (protein, UniProt P15891 2-592, looked up)
Actin-binding protein: B3 Actin-binding protein
modifications: synonymous D33D codon change
B6: ABP1 V31V (protein, UniProt P15891 2-592, looked up)
Actin-binding protein: B3 Actin-binding protein
modifications: synonymous codon change V31
B7: ABP1 A11A (protein, UniProt P15891 2-592, looked up)
Actin-binding protein: B3 Actin-binding protein
modifications: synonymous codon change A11A in SH3
B8: ABP1 D10D (protein, UniProt P15891 2-592, looked up)
Actin-binding protein: B3 Actin-binding protein
modifications: synonymous D10D codon change
B9: ABP1 D32D (protein, UniProt P15891 2-592, looked up)
Actin-binding protein: B3 Actin-binding protein
modifications: synonymous D32D codon change
B10: ABP1 D34D (protein, UniProt P15891 2-592, looked up)
Actin-binding protein: B3 Actin-binding protein
modifications: synonymous codon change D34D

Tests used:
Format in all cases: cell-based, Saccharomyces cerevisiae
BBC1 = assay: DHFR-PCA on solid medium, bait BBC1 (Fig. 1B); conditions: bait BBC1, label = prey; for medrep (log2 median colony size normalized to plate background, PCA score): 2-4 replicates
Excerpt: (§1) Supplement 41467_2021_21873_MOESM8_ESM.xlsx, sheet "Fig1B" | column: medsize; medrep; Ratio; Score

BUD14 = assay: DHFR-PCA on solid medium, bait BUD14 (Fig. 1B); conditions: bait BUD14, label = prey
Excerpt: as §1

BZZ1-1 = assay: DHFR-PCA on solid medium, bait BZZ1-1 (Fig. 1B); conditions: bait BZZ1-1, label = prey; 4 replicates
Excerpt: Supplement 41467_2021_21873_MOESM8_ESM.xlsx, sheet "Fig1B" | column: medsize; medrep; Score

BOI2 = assay: DHFR-PCA on solid medium, bait BOI2 (Fig. 1B); conditions: bait BOI2, label = prey; 3-8 replicates
Excerpt: as §1

[1] = tested on: 575 putative partners (preys) of 22 WT SH3-containing proteins; assay: DHFR-PCA on solid medium, WT and SH3-deleted baits (Fig. 1B); design: key to Score: 0: SH3-independent; 1: SH3-dependent PPIs; 2: SH3-inhibited PPIs
In short: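 Interactions scored by DHFR protein-fragment complementation on solid medium using robotic pinning; preys (DHFR F[3] fusions) arrayed in duplicate with control borders. Baits carried C-terminal DHFR F[1,2]-FLAG tags, tested as wild type and as SH3-deleted versions carrying a flexible Gly/Ser stuffer.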

BEM1-2 = assay: DHFR-PCA on solid medium, bait BEM1-2 (Fig. 1B); conditions: bait BEM1-2, label = prey; 2-8 replicates
Excerpt: as §1

BEM1-1 = assay: DHFR-PCA on solid medium, bait BEM1-1 (Fig. 1B); conditions: bait BEM1-1, label = prey
Excerpt: as §1

ABP1 = assay: DHFR-PCA on solid medium, bait ABP1 (Fig. 1B); conditions: bait ABP1, label = prey; 2-4 replicates
Excerpt: as §1

Hua2 and Lsb3 [2] = assay: Classification of Abp1 SH3 mutations by effect on Hua2 and Lsb3 DMS scores (quadrant); conditions: class of mutation by Hua2 and Lsb3 DMS scores (Dest. both, Dest. Hua2, Dest. Lsb3, Neutral)
Hua2 = assay: Deep mutational scanning of Abp1 SH3, Abp1-Hua2 DHFR-PCA (DMS score); conditions: for hua2sc (DMS score): Abp1-Hua2, frequencies scaled to the synonymous mutation distribution; for HUA2_MTX2 (frequency normalized to the reference condition): Abp1 SH3 DMS, frequencies normalized to the reference condition; for HUA2_MTX2 (frequency normalized to the reference condition) / hua2sc (frequencies scaled to the synonymous mutation distribution, DMS score) / HUA2_MTX2 (frequencies normalized to the reference condition): Abp1-Hua2 DHFR-PCA, MTX2
In short: (§2)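 Yeast carrying single-codon Abp1 SH3 variants at the endogenous locus, each paired with a Hua2 or Lsb3 DHFR-fragment partner; binding scored by growth over two successive 72 h PCA selections at 30 °C. Illumina counts before and after selection give the DMS score; independent duplicates.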

Lsb3 = assay: Deep mutational scanning of Abp1 SH3, Abp1-Lsb3 DHFR-PCA (DMS score); conditions: for lsb3sc (DMS score): Abp1-Lsb3, frequencies scaled to the synonymous mutation distribution; for LSB3_MTX2 (frequency normalized to the reference condition): Abp1 SH3 DMS, frequencies normalized to the reference condition; for LSB3_MTX2 (frequency normalized to the reference condition) / lsb3sc (frequencies scaled to the synonymous mutation distribution, DMS score) / LSB3_MTX2 (frequencies normalized to the reference condition): Abp1-Lsb3 DHFR-PCA, MTX2
In short: as §2

Hua2 and Lsb3 [3] = assay: Classification of Abp1 SH3 mutants by DMS scores with Hua2 and Lsb3 (quadrant); conditions: class by DMS scores with Hua2 and Lsb3 (Dest. both, Dest. Hua2, Dest. Lsb3, Neutral)
[4] = only significant differences showed, PPIs completely lost have a ratio of 0.1 and the gained PPIs 2.5

Molecule | quadrant (Hua2 and Lsb3 [2]) | hua2sc (DMS score) (Hua2) | HUA2_MTX2 (frequency normalized to the reference condition) (Hua2) | lsb3sc (DMS score) (Lsb3) | LSB3_MTX2 (frequency normalized to the reference condition) (Lsb3) | quadrant (Hua2 and Lsb3 [3]) | hua2sc (frequencies scaled to the synonymous mutation distribution, DMS score) (Hua2) | HUA2_MTX2 (frequencies normalized to the reference condition) (Hua2) | lsb3sc (frequencies scaled to the synonymous mutation distribution, DMS score) (Lsb3) | LSB3_MTX2 (frequencies normalized to the reference condition) (Lsb3) | other results
B1 | – | – | – | – | – | – | – | – | – | – | medrep (log2 median colony size normalized to plate background, PCA score) (BBC1): 4.121; medrep (log2 median colony size normalized to plate background, PCA score) (BUD14; 4 replicates): 1.869; Ratio (SH3-deleted/WT medrep) (BUD14; [4]): 0.1; medrep (log2 median colony size normalized to plate background, PCA score) (BZZ1-1): 2.391; medrep (log2 median colony size normalized to plate background, PCA score) (BOI2): 2.6006; medrep (log2 median colony size normalized to plate background, PCA score) ([1]; bait SLA1-3, DHFR-PCA, label = prey, Replicates 4 (2 for YCR009C, YDR388W, YIL033C)): 4.584; Score ([1]; bait SLA1-3, label = prey): 0; medrep (log2 median colony size normalized to plate background, PCA score) (BEM1-2): 1.993; medrep (log2 median colony size normalized to plate background, PCA score) (BEM1-1; 2-8 replicates): 1.993; Ratio (SH3-deleted/WT medrep) (BEM1-1; [4]): 0.1; medrep (log2 median colony size normalized to plate background, PCA score) (ABP1): 4.8359
B2 | – | – | – | – | – | – | – | – | – | – | medrep (log2 median colony size normalized to plate background, PCA score) (BBC1): 1.475; Ratio (SH3-deleted/WT medrep) (BBC1; [4]): 0.1; medrep (log2 median colony size normalized to plate background, PCA score) (BZZ1-1): 4.137; medrep (log2 median colony size normalized to plate background, PCA score) (ABP1): 3.834
B3 | Neutral | 0.2398 | 1.853 | -0.04736 | 1.453 | – | – | – | – | – | –
B4 | Neutral | -0.7456 | 0.8672 | -0.3936 | 1.1067 | – | – | – | – | – | –
B5 | – | – | – | – | – | Neutral | 0.4122 | 2.025 | 0.1943 | 1.695 | –
B6 | – | – | – | – | – | Neutral | -0.7307 | 0.882 | -0.4906 | 1.01 | –
B7 | Neutral | 0.2975 | 1.91 | 0.4621 | 1.962 | – | – | – | – | – | –
B8 | Neutral | -0.2777 | 1.335 | 0.006531 | 1.507 | – | – | – | – | – | –
B9 | – | – | – | – | – | Neutral | -0.3604 | 1.252 | -0.4014 | 1.099 | –
B10 | – | – | – | – | – | Neutral | -0.3883 | 1.224 | -0.3576 | 1.143 | –
